± gives the uncertainty stated by the source.

The chains are these.
B1: Protein S100-G, residues 1 to 79; numbered along this chain, P02633 (parent)
chain: MSAKKSPEELKGIFEKYAAKEGDPNQLSKEELKLLLQTEFPSLLKGPSTLDELFEELDKNGDGEVSFEEFQVLVKKISQ

Variants of B1 are the subject of this series. In words: abundance fitness (aPCA) (normalised: wild type 0, dead -1); higher = more abundant; growth selection in yeast, the domain comes from the species named. Conditions: Bos taurus.
As to E15H, the abundance fitness was 0.018 ± 0.088.

Consider E15C, for which the abundance fitness was -0.152 ± 0.093.

On to E15A, for which the abundance fitness is -0.039 ± 0.069.

Take V65W: the abundance fitness was -0.018 ± 0.074.

Take V65T: the abundance fitness is 0.037 ± 0.067.

As to V65G, the abundance fitness is -0.37 ± 0.071.

Take V65P: the abundance fitness is -0.34 ± 0.073.

K45A: the abundance fitness was -0.442 ± 0.082.

Regarding K45P, the abundance fitness was 0.003 ± 0.068.

K45R: the abundance fitness is 0.002 ± 0.069.

Consider K45T, for which the abundance fitness was -0.005 ± 0.065.

Consider K45Q, for which the abundance fitness turned out to be 0.042 ± 0.084.

Consider D23R, for which the abundance fitness is -0.043 ± 0.069.

On to G22M, for which the abundance fitness is -0.19 ± 0.089.

Regarding G22K, the abundance fitness is -0.037 ± 0.084.

On to G46Y, for which the abundance fitness stood at 0.011 ± 0.067.

Consider G46I, for which the abundance fitness was found to be 0 ± 0.072.

Regarding G46E, the abundance fitness was -0.025 ± 0.085.

For G46T, the abundance fitness came out at 0.007 ± 0.061.

Take G46L: the abundance fitness turned out to be 0.02 ± 0.054.

In the case of D58I, the abundance fitness was 0.027 ± 0.083.

For D58P, the abundance fitness was -0.078 ± 0.079.

Regarding D58W, the abundance fitness was -0.027 ± 0.085.

On to D58H, for which the abundance fitness is -0.096 ± 0.083.

For the variant D58R, the abundance fitness is -0.072 ± 0.067.

Consider L34Y, for which the abundance fitness is -0.015 ± 0.079.

P47R: the abundance fitness was -0.05 ± 0.081.

In the case of P47A, the abundance fitness came to 0.094 ± 0.094.

For P47T, the abundance fitness amounted to 0.085 ± 0.078.

Turning to P47C, the abundance fitness came to 0.04 ± 0.11.

P47K: the abundance fitness was -0.09 ± 0.089.

For S6F, the abundance fitness was -0.054 ± 0.076.

For the variant S6Q, the abundance fitness was -0.076 ± 0.074.

As for S6M, the abundance fitness is -0.111 ± 0.087.

In the case of S6E, the abundance fitness was -0.159 ± 0.09.

On to S6H, for which the abundance fitness is -0.119 ± 0.079.

Take S6D: the abundance fitness was -0.071 ± 0.091.

Take L32W: the abundance fitness is -0.209 ± 0.081.

In the case of L32F, the abundance fitness was -0.048 ± 0.083.

As for L32R, the abundance fitness is -0.874 ± 0.067.

Consider L32H, for which the abundance fitness was -0.951 ± 0.096.

For L32I, the abundance fitness amounted to 0.067 ± 0.093.

Take L32Q: the abundance fitness was -0.616 ± 0.083.

As for L44N, the abundance fitness turned out to be 0.058 ± 0.076.

For L44Q, the abundance fitness was -0.037 ± 0.089.

On to L44V, for which the abundance fitness was found to be 0.02 ± 0.069.

Consider L44Y, for which the abundance fitness was determined as 0.033 ± 0.074.

For L44S, the abundance fitness was -0.047 ± 0.061.

On to L44T, for which the abundance fitness came to 0.035 ± 0.072.

As for L44C, the abundance fitness was determined as 0.002 ± 0.081.

As to L44H, the abundance fitness was -0.035 ± 0.078.

For the variant L27E, the abundance fitness was -1.04 ± 0.094.

As to L27C, the abundance fitness was 0.006 ± 0.091.

With L27K, the abundance fitness is -0.844 ± 0.088.

As to L27Q, the abundance fitness is -0.839 ± 0.08.

In the case of L27R, the abundance fitness was -0.673 ± 0.066.

K16S: the abundance fitness is -0.042 ± 0.067.

Turning to K16R, the abundance fitness was -0.082 ± 0.064.

As for K16T, the abundance fitness is -0.087 ± 0.077.

In the case of S48G, the abundance fitness is -0.042 ± 0.07.

Take S48D: the abundance fitness is -0.138 ± 0.086.

Regarding S48A, the abundance fitness worked out at 0 ± 0.071.

For E64G, the abundance fitness worked out at 0.059 ± 0.076.

E64H: the abundance fitness was determined as 0.048 ± 0.079.

Regarding E64L, the abundance fitness is -0.055 ± 0.06.

For the variant E64W, the abundance fitness was determined as 0.155 ± 0.077.

On to K4F, for which the abundance fitness came out at 0 ± 0.068.

Regarding K4C, the abundance fitness was -0.222 ± 0.079.

Consider K4Q, for which the abundance fitness was -0.06 ± 0.082.

Consider I13D, for which the abundance fitness is -0.436 ± 0.097.

I13P: the abundance fitness is -0.424 ± 0.08.

As for I13V, the abundance fitness was -0.123 ± 0.071.

For the variant I13N, the abundance fitness was -0.631 ± 0.084.

With Q71K, the abundance fitness was -0.074 ± 0.097.

With Q71N, the abundance fitness was -0.06 ± 0.082.

For the variant Q71T, the abundance fitness is -0.031 ± 0.072.

For the variant Q71Y, the abundance fitness was -0.168 ± 0.087.

Regarding Q71C, the abundance fitness was -0.101 ± 0.089.

Take Q71I: the abundance fitness is -0.054 ± 0.077.

For the variant Q71H, the abundance fitness is -0.029 ± 0.078.

As to Q71M, the abundance fitness is -0.032 ± 0.088.

With E9Y, the abundance fitness was -0.023 ± 0.074.

E9R: the abundance fitness was -0.179 ± 0.075.

In the case of E9C, the abundance fitness is -0.177 ± 0.091.

As to N25R, the abundance fitness is -0.069 ± 0.069.

For the variant N25H, the abundance fitness was 0.02 ± 0.086.

Consider N25T, for which the abundance fitness is -0.006 ± 0.076.

As to N25P, the abundance fitness is -0.077 ± 0.08.

Consider N25K, for which the abundance fitness was -0.059 ± 0.086.

Turning to E68T, the abundance fitness was -0.012 ± 0.062.

Take E68C: the abundance fitness was -0.073 ± 0.079.

As to E68N, the abundance fitness was -0.047 ± 0.071.

Turning to E68D, the abundance fitness is -0.005 ± 0.083.

Take K76Y: the abundance fitness is -0.325 ± 0.076.

As to K76C, the abundance fitness was -0.29 ± 0.089.

Consider K76P, for which the abundance fitness is -0.238 ± 0.066.

For the variant K76S, the abundance fitness is -0.119 ± 0.061.

With Q37P, the abundance fitness was -0.185 ± 0.072.

Consider Q37T, for which the abundance fitness amounted to 0.021 ± 0.067.

In the case of Q37V, the abundance fitness was -0.001 ± 0.072.

With Q37G, the abundance fitness was 0.004 ± 0.08.

With Q37D, the abundance fitness came to 0.054 ± 0.088.

For the variant D51A, the abundance fitness is -0.032 ± 0.071.

In the case of D51E, the abundance fitness was -0.07 ± 0.093.

With D51V, the abundance fitness was -0.032 ± 0.073.

For D51C, the abundance fitness was determined as 0.011 ± 0.084.

D51L: the abundance fitness was -0.072 ± 0.063.

Q79N: the abundance fitness was -0.154 ± 0.1.

Take Q79R: the abundance fitness stood at 0.16 ± 0.1.

Turning to Q79M, the abundance fitness was 0.026 ± 0.11.

As to Q79H, the abundance fitness is -0.048 ± 0.095.

Take Q79C: the abundance fitness was -0.032 ± 0.16.

Consider Q79G, for which the abundance fitness was 0.074 ± 0.12.

With A19W, the abundance fitness is -0.111 ± 0.085.

For A19V, the abundance fitness is -0.062 ± 0.071.

Take A19R: the abundance fitness is -0.073 ± 0.069.

A19I: the abundance fitness is -0.018 ± 0.081.

Turning to A19N, the abundance fitness is -0.017 ± 0.081.

For the variant A19K, the abundance fitness came out at 0.048 ± 0.09.

In the case of A19P, the abundance fitness was -0.132 ± 0.074.

On to A19M, for which the abundance fitness was -0.015 ± 0.086.

As to E69Q, the abundance fitness worked out at 0.016 ± 0.08.

Consider E69V, for which the abundance fitness was -0.021 ± 0.083.

Regarding E69M, the abundance fitness was determined as 0.022 ± 0.091.

In the case of E69A, the abundance fitness is -0.04 ± 0.08.

With K11L, the abundance fitness is -0.096 ± 0.06.

As to K11E, the abundance fitness was -0.063 ± 0.1.

Turning to K11A, the abundance fitness was -0.157 ± 0.081.

With K11W, the abundance fitness is -0.294 ± 0.1.

In the case of K11Q, the abundance fitness is -0.04 ± 0.078.

Turning to K11M, the abundance fitness is -0.151 ± 0.077.

K11T: the abundance fitness was -0.197 ± 0.064.

In the case of M1G, the abundance fitness is -0.267 ± 0.1.

Turning to M1E, the abundance fitness is -0.552 ± 0.1.

Consider M1N, for which the abundance fitness is -0.186 ± 0.13.

For the variant M1H, the abundance fitness was -1.42 ± 0.33.

For the variant E55Y, the abundance fitness came out at 0.058 ± 0.088.

Take E55P: the abundance fitness was 0.012 ± 0.077.

Regarding K33F, the abundance fitness is -0.022 ± 0.091.

On to K33G, for which the abundance fitness is 0.033 ± 0.08.

K33R: the abundance fitness was -0.005 ± 0.07.

K33N: the abundance fitness was -0.016 ± 0.085.

K33Y: the abundance fitness is -0.121 ± 0.085.

Consider K33C, for which the abundance fitness is -0.072 ± 0.084.

As to K33A, the abundance fitness is 0.043 ± 0.076.

As for F67E, the abundance fitness was -0.063 ± 0.077.

In the case of F67N, the abundance fitness was -0.131 ± 0.086.

On to F67H, for which the abundance fitness is -0.12 ± 0.094.

Turning to F67Q, the abundance fitness was found to be 0.04 ± 0.079.

In the case of G63S, the abundance fitness was -0.06 ± 0.065.

Turning to G63N, the abundance fitness is -0.082 ± 0.1.

With P41F, the abundance fitness is -0.019 ± 0.098.

As to P41N, the abundance fitness is -0.06 ± 0.081.

As for P41V, the abundance fitness is -0.129 ± 0.069.

Consider P7N, for which the abundance fitness was -0.056 ± 0.072.

Consider P7Y, for which the abundance fitness worked out at 0.063 ± 0.075.

P7K: the abundance fitness was -0.062 ± 0.076.

On to E56G, for which the abundance fitness was -0.006 ± 0.08.

E56K: the abundance fitness was -0.071 ± 0.085.

Take E56Q: the abundance fitness was -0.053 ± 0.087.

With E56M, the abundance fitness was -0.045 ± 0.087.

Regarding E56Y, the abundance fitness was -0.06 ± 0.086.

For E56H, the abundance fitness is -0.005 ± 0.085.

In the case of S42H, the abundance fitness is -0.087 ± 0.085.

On to S42I, for which the abundance fitness is -0.035 ± 0.083.

On to S42M, for which the abundance fitness was -0.07 ± 0.081.

In the case of S42N, the abundance fitness was -0.009 ± 0.083.

The record behind these values is the Human Domainome abundance scans (Beltran et al. 2025).
